± gives the half width of the 95% confidence interval.
How the values were obtained:
[1] = folding stability dG unfold from chymotrypsin proteolysis; higher = more stable
In short: (§1)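 Designed mini-proteins (under 80 residues, no cysteine) in a PA-tagged cDNA display construct were digested with trypsin and chymotrypsin. Each protease was used at 11 concentrations (threefold dilutions) plus a no-protease condition, followed by sequencing. K50 was inferred by Bayesian fitting of sequencing counts, and unfolding free energy was derived against a sequence-predicted unfolded-state K50 and a shared folded-state K50, per protease or combined. Only designs with AlphaFold2 dimer inter-PAE above 15 were kept.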

[2] = folding stability dG unfold (combined trypsin and chymotrypsin); higher = more stable
In short: as §1

| Sequence | folding stability dG unfold [1] [kJ/mol] | folding stability dG unfold [2] [kJ/mol] |
| --- | --- | --- |
| SAVTFPVPVTVTVPDADGGPPAVTVPVAVPVDPDAVRDAAIERLRRELAEAGRPDVTEEDLARPEFLAARSA [r9_263_TrMRF] | 2.6 ± 0.669 | -1.4 ± 0.962 |
| SAGGSAGGSAGGSKSIYISPDDPNNIRTPDDGEPFKGMPIEEAKKEGIEPRGPNAFRIPSAGGSAGGSAGGS [r4_306_TrROS] | -0.634 ± 1.51 | -2.44 ± 2.26 |
| SAGGSAGGSAWRTIEITWPPSNPEEFIDEISKDFGFTVEGEREPNGYHTIDFQLPPGMKIVSAGGSAGGSAG [r3_457_TrROS] | -0.572 ± 0.962 | -0.937 ± 0.837 |
| SAGGSAGGSAGAPVEVVITFESPTSRTTRTFPADLPEAEVERLAAALRAAHPEPVRVEPRSAGGSAGGSAGG [r11_515_JUSTAS] | -4.1 ± 2.01 | < -4.18 |
| SAGGSAGGGGGFRVKAEVKHGGKEYPMEILIDPSEGNINIQMPNGKSITLPLNDVKIDEVEPVNSAGGSAGG [r6_185_TrROS] | 1.43 ± 1.21 | 0.421 ± 1.42 |
| SAGGSAGGSMTITIKLDNVKEVEVKFNPETNVVEIKVKVDGKEYVIRMEFVDGKIYITEIKPLSAGGSAGGS [r20_60_TrROS_Hall] | 15.4 ± 1.42 | 17 ± 1.17 |
| SAGGSAGGSELPPGPYLVTIPADPEPVVAPATFAPDGTVRVRVPEPGEEITIPRDQAEIFPVESAGGSAGGS [r12_782_JUSTAS] | 3.95 ± 0.243 | -0.0619 ± 1.17 |
| SAGGSGDSMLVPVSESTSSYPPSGIVRSTKTILDPKKGGIITETTTTTLTPDGNPLSTTPSTTVKESAGGSA [r2_253_JUSTAS] | 1.44 ± 0.134 | -1.02 ± 0.962 |
| SADKVIIPFDSPEEIKGIIKEARKAGIPGKEIVIWSEDDWMYKIEVDPNKGNVEIEPVMPPEDLNDEMPSAG [r14_913_TrROS] | 2.63 ± 0.201 | 0.0537 ± 0.502 |
| SAGGGSMVVEKPVALPPDTDVEEVAKEVAEELFPEDEKYKIEVERYPDSVRITVYDPKNGKPVIETVDSAGG [r13_724_JUSTAS] | -2.36 ± 1.88 | < -4.18 |
| SAGGGMSPVGTTTSTSPSGVVTTTTTLEAPPPVVTTTTTTTTPVPPPLPPRPPYGPENRARALARAASAGGS [r16_6_JUSTAS] | -0.613 ± 1.63 | < -4.18 |
| SAGGMTVTVPFTSEEELEAAIEAAPSSLTTVTTTDPARGLRRTLNVDPATRAVVETEEEAVDPEDPALSAGG [r13_945_JUSTAS] | -1.58 ± 0.586 | < -4.18 |
| SMVIPSSLGFEPALERVRALLPPERRYVVTELDPATGETTTATYDPATGTVTTTATPSAAGPPYVVVEVVSA [r9_1059_JUSTAS] | 1.44 ± 0.268 | -1.05 ± 0.36 |
| SAGGSGSRIVVETITEYEVFETPTGKKKTKVFKTKKIVTETVPMSPADVAAYEAALAEGLGPGALASAGGSA [r2_327_JUSTAS] | 2.99 ± 0.669 | -0.978 ± 0.711 |
| SAGGSAGGSAGGGSMDELPEIEEIAYVTDPATGAVTTVPASQVPEVLASTNNTVTIRPVSAGGSAGGSAGGS [r10_1121_JUSTAS] | 1.52 ± 0.305 | < -4.18 |
| SAGGSAGGSASLSLDQVGTVTFPANGAPALVTRLPDGSVALYFPATGRVLYLDGPNDVTPDSAGGSAGGSAG [r3_96_TrMRF] | 4.06 ± 0.247 | 2.31 ± 0.314 |
| SAGGSAGGSAGGGPMIYTEETVEEVVKVGEKSIKRTVTTTKVEVPGKPGVVLETKVDWGGSAGGSAGGSAGG [r7_795_JUSTAS] | 3.5 ± 0.1 | 1.31 ± 0.385 |
| SAGGPIKRDPDGKIEIHYNEDNGRWHVKIRDPGKPKKEREFKSPDDANEFAKSFANDGWKIDKVEPYPSAGG [r13_727_TrROS] | 4.51 ± 1.05 | 3.49 ± 1.34 |
| SAGGKKKVVIKVEVKNKKTGKTFEKEIVIEIDENETEEQILEKAKELAKKLAEENGLEVKIVEIKPLSAGGS [r8_312_TrROS_Hall] | 16.1 ± 0.753 | 18.5 ± 1.05 |
| SAGGPWHEITVRAKGPPGNTPEQAVDEVADELADNNPDFTVEIQEVEVNPEDGQVEATIRVEDGKIVSAGGS [r8_26_TrROS] | -0.369 ± 0.142 | < -4.18 |
| SAGGSMLVTVKFKTLPDGTVDHNPKLLAKVDGPEPDPADPATVRLPVDPAVVAQWPEEVAEEMEILASAGGS [r16_328_JUSTAS] | 0.647 ± 0.36 | -0.664 ± 0.31 |
| SAGGSAGGSAGGAKPVTFTFPDGTKAVSVEETPTSVVLYDPGPGALYVLDKETKTITPASAGGSAGGSAGGS [r10_289_TrMRF] | -2.14 ± 1.21 | -3.01 ± 1.42 |
| SAGGSAGGAEKIKKKLEELGFEIVKIEKESENKIKIYVKPDNPEKIKEIKEKISSSEVDEIGNESAGGSAGG [r6_83_TrMRF] | 2.03 ± 0.669 | -1.13 ± 0.711 |
| SAGGSAGGSAGGPMYTVHTETFTTLEPGAGKRIVTTRTTNPATGATATTTTVIPLEPEALSAGGSAGGSAGG [r17_153_JUSTAS] | -2.32 ± 1.63 | < -4.18 |
| SAGGSAGGSAGGDPIRVDDIEPNPDRLEIDIRNFGNGNQKKHTIPPGSPPKIKPGDYIRSAGGSAGGSAGGS [r10_834_TrROS] | 3.59 ± 0.502 | 0.958 ± 1.09 |

| Sequence | folding stability dG unfold [1] [kJ/mol] | folding stability dG unfold [2] [kJ/mol] |
| --- | --- | --- |
| SAGGSAGGSLRPDEEVVAILPNGEKVPFKVESVEVSPDGSVKANLTLPGGKSLGPANLVFKPESAGGSAGGS [r12_735_TrMRF] | -0.015 ± 0.326 | -2.63 ± 0.92 |
| SAGGSAGGGMTGATPTPRTVPLPGDRTATVYERPETGELLVELPGRRLRVSPAALAAGEVALEASAGGSAGG [r6_940_JUSTAS] | 0.473 ± 0.92 | < -4.18 |
| SAGGSAGGSAGGSSMKEVTLYVPPGTLDPAVVEKLREEGVKVTVVPVPLSREPDGPPVASAGGSAGGSAGGS [r4_294_JUSTAS] | 4.04 ± 0.711 | 0.21 ± 1.59 |
| VNPRTLTYDPVTNRIDAATPDGTPVTVTAGSSGYTATVTDPATGAPTVVPLTEAELAALEADPAFPLATSNS [r1_18_JUSTAS] | 2.73 ± 0.238 | -0.481 ± 0.234 |
| SAGGSAGGSAGGSMLTVRSSSTTPLPDGSTVTTYEVNDKPYLVRVDPNGPVVTVKPLSLLSAGGSAGGSAGG [r7_772_JUSTAS] | -1.53 ± 1.67 | -1.98 ± 1.21 |
| SAGGSAGGSMTVDTTYDPSTDRVTLTVTIPAPDGSELVRTVQSTGDPEAAAAAAAAAVAAAAASAGGSAGGS [r20_33_JUSTAS] | -1.05 ± 0.586 | < -4.18 |
| SAGGSAGGSKKWIPIDSPSEIEDLLEKAPPGGKLKIYNNNGQTEKVPPNEIERTPNHWWIEVDSAGGSAGGS [r12_907_TrROS] | 1.31 ± 0.711 | -1.94 ± 1.88 |
| SAGGSAGGSKWKISVHPPNGNSWKIDPGDTIKELVDQMSKENGWPYHIHVSKEEAEKLGLKPVSAGGSAGGS [r12_379_TrROS] | 1.49 ± 0.544 | -0.0483 ± 0.669 |
| SAGGMTETATTTTTLPDGTVVTTGTTTVTEGSSTTTTTFTTVTTVAPVPPPPYPPAPLPWPEDPVLASAGGS [r8_269_JUSTAS] | 0.596 ± 0.628 | < -4.18 |
| SAGGSAGGSAGGMIIVPVVTEETVDVTFRKTPEGVWEPVGPQTITTTTTLTIDPTKGRLSAGGSAGGSAGGS [r10_93_JUSTAS] | 0.564 ± 1.8 | -1.85 ± 1.55 |
| SAGGSMSTTLPDGGKVTVYSDPNKPLTLVEVELPDRRLVVLRPVSAPEDGTIVAPVEVRPLEEVEEASAGGS [r16_85_JUSTAS] | -0.0452 ± 0.753 | < -4.18 |
| SAGNMTNEQLQERIKEAVREDGWPTYRIKMSGPDGKNMNFQVDFPEERRQKIQKELGWDITEVEPRRYSAGG [r19_50_TrROS] | -0.449 ± 1.59 | -2.42 ± 1.26 |
| SAGGSMKDIPAEEIAKLFAAKLGYPILDAKVEKNPVKPVYKLYIVVEEKNPGKKFPREITIPSELLSAGGSA [r2_156_TrMRF] | 0.82 ± 1.05 | -0.209 ± 0.92 |
| SAMVPLEEAAKRVAEELGLEYTEITKIVPGTGELIVEFPGKKLTVTQDPATGSTTVEETFYDPETGVKKSAG [r14_270_JUSTAS] | -5.66 ± 1.17 | < -4.18 |
| SAMTISVSETPDTGSLTVPMTLEPDTVEEVVEEVAKEIAPEEAEVSIEVTEVVPHPDSVTVTAKITVRPSAG [r14_345_JUSTAS] | 1.51 ± 0.172 | -0.278 ± 0.356 |
| SAGGSASVSYDPTPGPTRRTTTLLETEEVGPNLKRVKTKVTLFPSDGVPTTSTVTELDLVPPPELPSAGGSA [r15_1035_JUSTAS] | 2.2 ± 0.238 | 0.536 ± 0.46 |
| SAGGSGMWTPKQVKLLAEPGKSKTITIPGPVSEEEINALLNAGEPVIITLPDGTVLKAEKNTITLESAGGSA [r2_33_JUSTAS] | 0.578 ± 0.351 | -1.55 ± 0.628 |
| SAGSVPQLIEDKLQEGSPNSSVEVKPVDTLGGTTVLEVKIERIDTSSGNGKLTSEDKIIEVPAGEELGSAGG [r19_8_JUSTAS] | 1.95 ± 0.205 | 0.0663 ± 0.36 |
| SAGGSAGGSAGGMKPGEVVLIYVERSYYDPEKGPLTPRNARYELLNYKPLPLKPKDPKVLSAGGSAGGSAGG [r7_522_JUSTAS] | -1.25 ± 1.09 | -2.16 ± 0.669 |
| SAGGATTERTFTFPSSVSPEEAAAAVAAEAPPGLRVDVAPVATRADPSGVTTTTLRARFTDPAAPAAASAGG [r13_12_JUSTAS] | 1.24 ± 0.502 | < -4.18 |
| SAGGYPAEIEASNVKPEELKKAIEDAPWAKELDVEVEDSSPDGSVKAKFKANSKAEVKRFEKAVKDAFSAGG [r13_580_TrMRF] | -1.88 ± 1.42 | < -4.18 |
| SAGGSASVSVTELSPEERAALEAAGVEVPDDRPRVVETRTVTPAGGAVVTVRVLPEPPLSPEELAASAGGSA [r15_322_JUSTAS] | 1.3 ± 0.0544 | -0.531 ± 0.276 |
| SAGMLVRIETLPPGAATEEVVPMTPEEAKEYLEAQGYTVSTDPANPTMTFSHPDATVTVTFEPVPADLRSAG [r5_248_JUSTAS] | 3.31 ± 0.502 | 1.53 ± 0.628 |
| SAGGSAGGSAGGPIEEILASLPPNATVKVSRVVKLTTPDGSLSSIEVEEVITVKKPEKALSAGGSAGGSAGG [r11_347_JUSTAS] | 2.74 ± 0.0837 | 1.2 ± 0.544 |

From the supplement of paper PMC12764529
